From US20260209320A1 (ALCHEMAB THERAPEUTICS, published 2026) come the findings set out here.

Experiment [1] has as its target T1, Peptide 14 (human, cyno).
T1 peptide: PQPQPPPPPPPPPPG
Put plainly: peptide microarray; Sp C2; IgG 1 µg/ml.

Experiment [2] has as its target T2, Peptide 15 (human, cyno).
T2 peptide: QPQPPPPPPPPPPGP
Put plainly: peptide microarray; Sp C2; IgG 1 µg/ml.

Experiment [3] has as its target T3, Peptide 20 (cyno).
T3 peptide: QAQPMLPQPQPPPPP
Put plainly: peptide microarray; Sp C1; IgG 1 µg/ml.

For experiment [4], the target named is T3, Peptide 20. Put plainly: peptide microarray; Sp C1; IgG 10 µg/ml.
Experiment [5] deals with T1, Peptide 14. Put plainly: peptide microarray; Sp H; IgG 1 µg/ml.
Experiment [6] has as its target T4, Peptide 6 (human).
T4 peptide: QQPPPPPPPPPPPQL
Put plainly: peptide microarray; Sp H; IgG 1 µg/ml.

Experiment [7] concerns the target T2, Peptide 15. The experiment in a line: peptide microarray; Sp H; IgG 1 µg/ml.
Experiment [8] concerns the target T1, Peptide 14. Put plainly: peptide microarray; Sp H; IgG 10 µg/ml.
Experiment [9] addresses T4, Peptide 6. Put plainly: peptide microarray; Sp H; IgG 10 µg/ml.
Experiment [10] concerns the target T2, Peptide 15. Put plainly: peptide microarray; Sp H; IgG 10 µg/ml.
Experiment [11] deals with T1, Peptide 14. The experiment in a line: peptide microarray; Sp C2; IgG 10 µg/ml.
For the next experiment, the target named is T5, Peptide 30 (cyno).
T5 peptide: MLPQPQPPPPPPPPP
Put plainly: peptide microarray; Sp C2; IgG 10 µg/ml.

In a further experiment the target is T6, Peptide 3 (human, cyno).
T6 peptide: QQQQQQPPPPPPPPP
The experiment in a line: peptide microarray; Sp C2; IgG 10 µg/ml.

Experiment [12] has as its target T2, Peptide 15. Put plainly: peptide microarray; Sp C2; IgG 10 µg/ml.
The target of the next experiment is T7, Peptide 28 (cyno).
T7 peptide: QPMLPQPQPPPPPPP
The experiment in a line: peptide microarray; Sp C2; IgG 10 µg/ml.

A further experiment has as its target T8, Peptide 1 (human, cyno).
T8 peptide: QQQQQQQQPPPPPPP
The experiment in a line: peptide microarray; Sp C2; IgG 10 µg/ml.

For a further experiment, the target named is T9, Peptide 21 (cyno).
T9 peptide: AQPMLPQPQPPPPPP
The experiment in a line: peptide microarray; Sp C2; IgG 10 µg/ml.

The next experiment concerns the target T10, Epitope 1 (human, cyno).
T10 peptide: QQQQPPPPPPPPPPP
The experiment in a line: peptide microarray; Sp C2; IgG 10 µg/ml.

The next experiment deals with T11, Peptide 26 (cyno).
T11 construct: the array is said to hold 15-mers
T11 peptide: QPPPPPPPPPPPPQL
Put plainly: peptide microarray; Sp C2; IgG 10 µg/ml.

The next experiment addresses T12, Peptide 25 (cyno).
T12 peptide: QQPPPPPPPPPPPPQ
Put plainly: peptide microarray; Sp C2; IgG 10 µg/ml.

A further experiment addresses T13, Peptide 4 (human, cyno).
T13 peptide: QQQQQPPPPPPPPPP
Put plainly: peptide microarray; Sp C2; IgG 10 µg/ml.

The next experiment addresses T14, Peptide 31 (cyno).
T14 peptide: LPQPQPPPPPPPPPP
Put plainly: peptide microarray; Sp C2; IgG 10 µg/ml.

A further experiment deals with T15, Peptide 2 (human, cyno).
T15 peptide: QQQQQQQPPPPPPPP
Put plainly: peptide microarray; Sp C2; IgG 10 µg/ml.

The target of another experiment is T16, Peptide 29 (cyno).
T16 peptide: PMLPQPQPPPPPPPP
Put plainly: peptide microarray; Sp C2; IgG 10 µg/ml.

The next experiment concerns the target T17, Peptide 18 (cyno).
T17 peptide: QQQPPPPPPPPPPPP
Put plainly: peptide microarray; Sp C2; IgG 10 µg/ml.

Another experiment concerns the target T18, Peptide 24 (cyno).
T18 peptide: QQQQQQQQQPPPPPP
The experiment in a line: peptide microarray; Sp C2; IgG 10 µg/ml.

In experiment [13] the target is T19, Peptide 23 (cyno).
T19 peptide: QQQQQQQQQQPPPPP
The experiment in a line: peptide microarray; Sp C2; IgG 1 µg/ml.

Experiment [14] has as its target T20, Peptide 41 (mouse).
T20 peptide: PPQPPPQGQPPPPPP
Put plainly: peptide microarray; Sp M; IgG 1 µg/ml.

The target in experiment [15] is T19, Peptide 23. Put plainly: peptide microarray; Sp C2; IgG 10 µg/ml.
The target in experiment [16] is T20, Peptide 41. The experiment in a line: peptide microarray; Sp M; IgG 10 µg/ml.

B1: ATL_0005335 (antibody, V domains shown)
VH: EVQLVESGGGLVKPGGSLRLSCAASGFTFNKAWMNWVRQAPGKGLEWVGRIKSGIDGGTTDYAAPVQGRFTISRDDSKNTVYLQMNSLNTEDTAVYYCIPPPYYYYYGLDVWGQGTTVTVSS
VL: QSALTQPASVSGSPGQSITISCTGTSSDIGSYNLVSWYQQHPGNAPKPLIYEGSKRPSGVSARFSGSKSGNTASLTISGLQPEDEADYYCSSYAGFNTLVFGGGTKVTVL
notes: human IgG1; also called ATL_5335
Consider B1, for which the corrected fluorescence intensity with Peptide 14 [1] is 0; with Peptide 15 [2], 0; with Peptide 20 [3] it was 187; in the experiment with Peptide 20 [4], 1190; with Peptide 14 [5] it was 335; with Peptide 6 [6], 0. Besides, the corrected fluorescence intensity with Peptide 15 [7] was 234; with Peptide 14 [8] it was 1630; in the experiment with Peptide 6 [9] it was 176; with Peptide 15 [10], 1130; in the experiment with Peptide 14 [11], 0; with Peptide 30, 6020. The corrected fluorescence intensity was 9510 in the experiment with Peptide 3; 0 with Peptide 15 [12]; 2670 with Peptide 28; 7010 in the experiment with Peptide 1; 448 in the experiment with Peptide 21; 9590 with Epitope 1. For the same molecule, the corrected fluorescence intensity in the experiment with Peptide 26 was found to be 1910; with Peptide 25 it was 3300; with Peptide 4, 10000; with Peptide 31, 7740; in the experiment with Peptide 2, 8870; with Peptide 29, 4680. In addition, the corrected fluorescence intensity with Peptide 18 is 8370; with Peptide 24, 3260.

B2: ATL_0005331 (antibody, V domains shown)
VH: B1 VH
VL: QSALTQPRSVSGSPGQSITISCTGTSSDVGSYNLVSWFQQHPGKAPKLIIYEVNKRPSGVPDRFSGSKSGNTASLTVSGLQAEDEADYYCGSYAGTNNVFGTGTKLTVL
notes: human IgG1; also called ATL_5331; Human IgG1 ATL_0005331
With B2, the corrected fluorescence intensity came to 0 with Peptide 23 [13]; 55 with Peptide 41 [14]; 4250 with Peptide 30; 4830 with Peptide 3; 1700 with Peptide 28; 2700 with Peptide 1. The corrected fluorescence intensity turned out to be 888 in the experiment with Peptide 21; 4580 with Epitope 1; 1040 in the experiment with Peptide 26; 947 with Peptide 25; 4870 with Peptide 4; 5480 with Peptide 31. The corrected fluorescence intensity with Peptide 2 came to 4070; with Peptide 29, 2170; in the experiment with Peptide 23 [15], 148; with Peptide 18, 4500; with Peptide 24, 994; in the experiment with Peptide 41 [16] it was 197.
